From PMC3355120, “LGR6 Is a High Affinity Receptor of R-Spondins and Potentially Functions as a Tumor Suppressor” (PLoS ONE, 2012)

Experiments:
[1] = target: T1, human LGR6 (leucine-rich repeat containing, G protein-coupled receptor 6) with a Flag-tag at the N-terminus, … (human, UniProt Q9HBX8-3 25-967); assay: whole-cell-based competition binding assay; HEK293 cells stably expressing Flag-LGR6 incubated with mRSPO1-Fc plus serial dilutions of purified recombinant RSPO1–4; maximum specific binding is the difference with and without mRSPO1-Fc; conditions: one partner purified
T1 construct: human LGR6, predicted mature form AA25-967 of NP_001017403; The CD8 signal peptide replaces LGR6's own; also called Flag-LGR6; LGR6 WT; source: HEK293T cells, transiently transfected (reporter assays); not shown: Flag, N-terminal, kept
T1 sequence (looked up): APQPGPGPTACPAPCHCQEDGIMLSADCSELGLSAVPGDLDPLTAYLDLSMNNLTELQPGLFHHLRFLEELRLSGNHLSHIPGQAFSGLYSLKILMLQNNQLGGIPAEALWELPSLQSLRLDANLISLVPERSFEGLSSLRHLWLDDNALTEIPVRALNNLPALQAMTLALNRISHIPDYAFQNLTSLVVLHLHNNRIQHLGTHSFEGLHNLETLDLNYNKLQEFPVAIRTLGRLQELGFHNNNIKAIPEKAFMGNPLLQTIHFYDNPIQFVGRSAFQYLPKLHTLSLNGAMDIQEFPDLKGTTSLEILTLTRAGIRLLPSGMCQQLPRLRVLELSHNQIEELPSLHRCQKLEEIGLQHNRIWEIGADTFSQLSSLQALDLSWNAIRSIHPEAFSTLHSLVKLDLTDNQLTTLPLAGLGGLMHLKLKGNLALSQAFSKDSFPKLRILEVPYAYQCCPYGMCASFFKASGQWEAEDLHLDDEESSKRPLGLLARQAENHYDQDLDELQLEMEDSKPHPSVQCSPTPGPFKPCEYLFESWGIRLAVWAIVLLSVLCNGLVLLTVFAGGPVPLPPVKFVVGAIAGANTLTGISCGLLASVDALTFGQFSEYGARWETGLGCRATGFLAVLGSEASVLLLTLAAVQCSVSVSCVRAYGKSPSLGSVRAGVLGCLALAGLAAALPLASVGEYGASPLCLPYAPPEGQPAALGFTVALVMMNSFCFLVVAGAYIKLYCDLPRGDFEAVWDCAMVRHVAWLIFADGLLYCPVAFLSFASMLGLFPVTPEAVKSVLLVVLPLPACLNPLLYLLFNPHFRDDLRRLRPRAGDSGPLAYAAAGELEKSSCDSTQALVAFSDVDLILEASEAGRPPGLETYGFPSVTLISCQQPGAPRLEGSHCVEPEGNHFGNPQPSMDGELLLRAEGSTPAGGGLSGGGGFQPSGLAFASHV

[2] = target: T1, human LGR6 (leucine-rich repeat …); assay: cell-based or functional assay

Binder | IC50 [1] | Super TOPflash β-catenin reporter in HEK293T cells transfected with LGR6 or vector, serial dilutions of RSPO1 with Wnt3a CM: gain in potency of RSPO1 [2]
purified recombinant R-spondin 2 (ligand, UniProt Q6UXX9 22-243, looked up, R-spondin 2 (RSPO2); also called RSPO2; source: purified recombinant) QGNRWRRSKRASYVSNPICKGCLSCSKDNGCSRCQQKLFFFLRREGMRQYGECLHSCPSGYYGHRAPDMNRCARCRIENCDSCFSKDFCTKCKVGFYLHRGRCFDECPDGFAPLEETMECVEGCEVGHWSEWGTCSRNNRTCGFKWGLETRTRQIVKKPVKDTILCPTIAESRRCKMTMRHCPGGKRTPKAKEKRNKKKKRKLIERAQEQHSVFLATDRANQ | 0.5 nM | –
purified recombinant R-spondin 4 (ligand, UniProt Q2I0M5 20-234, looked up, R-spondin 4 (RSPO4); also called RSPO4; source: purified recombinant) LNRRKKQVGTGLGGNCTGCIICSEENGCSTCQQRLFLFIRREGIRQYGKCLHDCPPGYFGIRGQEVNRCKKCGATCESCFSQDFCIRCKRQFYLYKGKCLPTCPPGTLAHQNTRECQGECELGPWGGWSPCTHNGKTCGSAWGLESRVREAGRAGHEEAATCQVLSESRKCPIQRPCPGERSPGQKKGRKDRRPRKDRKLDRRLDVRPRQPGLQP | 7 nM | –
purified recombinant R-spondin 3 (ligand, UniProt Q9BXY4 22-272, looked up, R-spondin 3 (RSPO3); also called RSPO3; source: purified recombinant) QNASRGRRQRRMHPNVSQGCQGGCATCSDYNGCLSCKPRLFFALERIGMKQIGVCLSSCPSGYYGTRYPDINKCTKCKADCDTCFNKNFCTKCKSGFYLHLGKCLDNCPEGLEANNHTMECVSIVHCEVSEWNPWSPCTKKGKTCGFKRGTETRVREIIQHPSAKGNLCPPTNETRKCTVQRKKCQKGERGKKGRERKRKKPNKGESKEAIPDSKSLESSKEIPEQRENKQQQKKRKVQDKQKSVSVSTVH | 1.7 nM | –
purified recombinant R-spondin 1 (ligand, UniProt Q2MKA7 21-263, looked up, R-spondin 1 (RSPO1); also called RSPO1; source: purified recombinant) SRGIKGKRQRRISAEGSQACAKGCELCSEVNGCLKCSPKLFILLERNDIRQVGVCLPSCPPGYFDARNPDMNKCIKCKIEHCEACFSHNFCTKCKEGLYLHKGRCYPACPEGSSAANGTMECSSPAQCEMSEWSPWGPCSKKQQLCGFRRGSEERTRRVLHAPVGDHAACSDTKETRRCTVRRVPCPEGQKRRKGGQGRRENANRNLARKESKEAGAGSRRRKGQQQQQQQGTVGPLTSAGPA | 3.3 nM | ~30 fold
